Assays:
VASP/zyxin interaction = biological target: T1, VASP/zyxin interaction (Homo sapiens, UniProt P50552); assay: VASP-zyxin solid-phase (DELFIA) assay, competition with peptides; type: binding; details: competing zyxin peptides, FIG. 2
T1 construct: made in house; host or cells: VASP: insect cells (baculovirus); GST-zyxin(1-142): E. coli, given only for the homogeneous assay
Protocol: In the solid-phase assay, a binding partner (VASP or zyxin) was immobilized on the surface of a microtiter plate (MTP) (=coating). The unsaturated binding sites on the surface of the plastic were blocked, and the surface was then incubated with the respective other binding partners. After the incubation, excess unattached protein was removed in a washing step. Using suitable antibodies, it was now possible to detect and quantify the specifically bound protein. Here, it was possible to improve the signal-noise (S/N) ratio considerably by using lanthanide chelates as fluorescent labels for the antibodies and the measurement of the time-resolved fluorescence.
For the solid-phase assay, the best coating and incubation conditions were characterized. […] For detecting VASP specifically bound to the immobilized zyxin, it was possible to use monoclonal antibodies against VASP which can be detected using lanthanide-labeled antibodies against mouse IgGs (Wallac: DELFIA anti-mouse-Eu(N1)).
The current assay protocol comprised 5 incubation steps and 3 washing steps: • 1. Incubation of the empty MTPs with GST-zyxin(1-142) (coating); • 2. Blocking with BSA (bovine serum albumin); • 3. Washing with PBS (wash buffer); • 4. Incubation with VASP (ligand) (with and without test substances); • 5. Washing with PBS; • 6. Incubation with detection mix: α-VASP (monoclonal anti-VASP antibody)+α-mouse-Eu (europium-labeled anti-mouse antibodies from Wallac); • 7. Washing with DELFIA wash solution; and • 8. Release of the bound lanthanide complex and fluorimetric measurement.
The optimum conditions for coating (GST-zyxin(1-142)) and ligand incubation (VASP) were determined by titrating the reagents. […] The volume per well used depended on the selected MTP format (50 μl or 100 μl for 96-well plates, 20 μl for 384-well plates).
Thus far, there are no known non-peptidergic inhibitors of the VASP/zyxin interaction To simulate the action of potential inhibitors, inhibition experiments were carried out using competing peptides which contained the VASP binding motif of zyxin (FPPPP (SEQ. ID. NO. 1)). […]

VASP/ActA interaction = VASP/ActA interaction (Homo sapiens, UniProt P50552); details: peptides with mutations in the FPPPP motif; cited from earlier work
Chain of VASP/ActA interaction (P50552 whole entry, species assumed): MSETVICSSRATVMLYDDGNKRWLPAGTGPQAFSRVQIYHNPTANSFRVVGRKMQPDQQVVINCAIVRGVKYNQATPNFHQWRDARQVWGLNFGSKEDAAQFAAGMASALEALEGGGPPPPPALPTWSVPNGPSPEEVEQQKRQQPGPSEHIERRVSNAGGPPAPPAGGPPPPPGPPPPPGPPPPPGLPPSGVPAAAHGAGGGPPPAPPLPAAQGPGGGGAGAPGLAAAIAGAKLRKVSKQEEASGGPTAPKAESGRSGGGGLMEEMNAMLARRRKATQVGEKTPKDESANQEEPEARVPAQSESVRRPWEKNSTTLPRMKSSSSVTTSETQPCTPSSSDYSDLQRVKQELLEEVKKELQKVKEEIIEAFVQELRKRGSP

T1 sequence (P50552 whole entry): as the sequence (P50552 whole entry, species assumed) above

Substance | apparent inhibition constants of the peptides (rank order of inhibition) (VASP/zyxin interaction) | inhibition of the VASP/ActA interaction (relative to wild type sequence FPPPP) (VASP/ActA interaction)
WPPPP: competing zyxin peptide containing the mutated VASP binding motif WPPPP | WPPPP (SEQ. ID. NO. 2)>FPPPP (SEQ. ID. NO. 1)>APPPP (SEQ. ID. NO. 3) | even better inhibition
APPPP: competing zyxin peptide containing the mutated VASP binding motif APPPP | WPPPP (SEQ. ID. NO. 2)>FPPPP (SEQ. ID. NO. 1)>APPPP (SEQ. ID. NO. 3) | considerably worse inhibition
FPPPP: competing peptide containing the wild type VASP binding motif of zyxin, FPPPP | WPPPP (SEQ. ID. NO. 2)>FPPPP (SEQ. ID. NO. 1)>APPPP (SEQ. ID. NO. 3) | WPPPP (SEQ. ID. NO. 2)>FPPPP (SEQ. ID. NO. 1)>APPPP (SEQ. ID. NO. 3)
